Series [1] has as its target T1, PT-AROD (L-arginine oxidase from Pseudomonas sp. TPU 7192) (Pseudomonas putida, UniProt A0A177SH44).
T1 construct: gene AYO28_23740; full length, recombinant in E. coli BL21(DE3) from pET-15b; homooctamer (D4), one FAD per monomer; 4632 residues modelled in octamer (579 per chain)
T1 sequence (A0A177SH44 1-589): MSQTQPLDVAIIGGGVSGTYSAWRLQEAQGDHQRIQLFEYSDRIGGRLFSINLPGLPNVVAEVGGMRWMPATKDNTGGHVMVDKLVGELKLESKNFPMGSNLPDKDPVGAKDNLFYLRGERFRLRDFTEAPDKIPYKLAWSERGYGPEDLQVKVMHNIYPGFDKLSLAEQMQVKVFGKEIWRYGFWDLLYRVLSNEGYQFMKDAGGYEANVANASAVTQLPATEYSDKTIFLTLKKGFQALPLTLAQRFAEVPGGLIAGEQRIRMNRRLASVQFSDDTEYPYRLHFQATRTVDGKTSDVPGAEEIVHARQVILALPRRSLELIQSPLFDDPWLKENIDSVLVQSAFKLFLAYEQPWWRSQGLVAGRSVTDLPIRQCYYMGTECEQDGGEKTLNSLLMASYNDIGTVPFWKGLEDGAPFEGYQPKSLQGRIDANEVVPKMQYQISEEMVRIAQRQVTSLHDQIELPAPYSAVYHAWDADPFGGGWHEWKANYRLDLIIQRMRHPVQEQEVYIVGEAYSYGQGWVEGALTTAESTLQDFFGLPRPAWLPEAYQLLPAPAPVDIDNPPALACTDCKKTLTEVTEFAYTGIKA
Nature of the series: cryo-EM ([…] Å) and X-ray crystallography ([…] Å). Particulars: one FAD per monomer; copurified, 0.2 μM FAD in purification buffers. The class given is binding.

Series [2] concerns the target L-arginine oxidase from Pseudomonas sp. TPU 7192 (Pseudomonas sp. TPU 7192). Nature of the series: cryo-EM structure; single-particle analysis, 2.5 mg/ml protein in 20 mM HEPES (pH 8.0), 50 mM NaCl, with bound FAD; D4 symmetry; octamer.
Series [3] has the same target. Description: crystal structure; crystals grown at 20°C from 10 mg/ml protein, 20% w/v PEG 3350, 0.2 M potassium citrate tribasic (pH 8.3); four molecules in the asymmetric unit, octamer made by a symmetry mate.
Series [4] shares this target. Description: mass photometry; 0.1 mg/ml in SEC buffer (20 mM HEPES pH 8.0, 50 mM NaCl), on a glass coverslip, 60 s, three repeats; molecular weight in solution.
The subject of the next series is T2, NCCCC[C@H](N)C(=O)O.
T2 construct: full length, recombinant in E. coli BL21(DE3) from pET-15b; homooctamer (D4), one FAD per monomer; 4632 residues modelled in octamer (579 per chain)
Description: peroxidase-coupled colourimetric assay (4-aminoantipyrine/TOOS), non-linear regression. The class given is biochemical, Pseudomonas putida. To be noted: 100 mM Tris-HCl pH 7.0, 37 °C, substrate 0-10 mM. From the text: (§1) peroxidase-coupled colourimetric assay (4-aminoantipyrine/TOOS), non-linear regression on PT-AROD (L-arginine oxidase from Pseudomonas sp. TPU 7192)

For a further series, the system named is T3, N=C(N)NCCC[C@H](N)C(=O)O.
T3 construct: full length, recombinant in E. coli BL21(DE3) from pET-15b; homooctamer (D4), one FAD per monomer; 4632 residues modelled in octamer (579 per chain)
The description is as above. The class given is biochemical, Pseudomonas putida. Particulars: 100 mM Tris-HCl pH 7.0, 37 °C, substrate 0-2.5 mM.
From the text: as §1

Substrate in series [5]: N=C(N)NCCC[C@H](N)C(=O)O
The description is as above. The class given is biochemical, Pseudomonas putida. To be noted: 100 mM Tris-HCl pH 7.0, 37 °C, substrate 0-2.5 mM.
From the text: as §1

Substrate in series [6]: NCCCC[C@H](N)C(=O)O
The series is described as above. The class given is biochemical, Pseudomonas putida. To be noted: 100 mM Tris-HCl pH 7.0, 37 °C, substrate 0-10 mM.
From the text: as §1

Take `Cc1cc2nc3c(=O)[nH]c(=O)nc-3n(C[C@H](O)[C@H](O)[C@H](O)COP(=O)(O)OP(=O)(O)OC[C@H]3O[C@@H](n4cnc5c(N)ncnc54)[C@H](O)[C@@H]3O)c2cc1C` [FAD]: in series [1], the “cryo-EM (2.3 Å) and X-ray crystallography (3.4 Å)” value was “We obtained a cryo-EM map of PT-AROD in complex with FAD”.

As for “L-arginine oxidase from Pseudomonas sp. TPU 7192 (enzyme)”, the stoichiometry N in series [2], in series [3] and in series [4] was 8 each time.

As for “PT-AROD (L-arginine oxidase from Pseudomonas sp. TPU 7192) (Pseudomonas putida; E486A)”, in the series with NCCCC[C@H](N)C(=O)O, the Km amounted to 1200 µM, the kcat turned out to be 1.1 s⁻¹ and the kcat/Km was 920 M⁻¹ s⁻¹. In addition, in the series on N=C(N)NCCC[C@H](N)C(=O)O, the Km turned out to be 190 µM, the kcat was found to be 3.5 s⁻¹ and the kcat/Km was determined as 18000 M⁻¹ s⁻¹.

Consider “PT-AROD (L-arginine oxidase from Pseudomonas sp. TPU 7192) (Pseudomonas putida; Q343E)”, for which, in the series on NCCCC[C@H](N)C(=O)O, the Km is 6900 µM, the kcat came to 0.5 s⁻¹ and the kcat/Km stood at 72 M⁻¹ s⁻¹. In the series on N=C(N)NCCC[C@H](N)C(=O)O, the Michaelis constant (Km) was determined as 1700 µM, the kcat was found to be 10.4 s⁻¹ and the kcat/Km is 6100 M⁻¹ s⁻¹.

B1: PT-AROD (L-arginine oxidase from Pseudomonas sp. TPU 7192) (Pseudomonas putida) (protein)
chain: MSQTQPLDVAIIGGGVSGTYSAWRLQEAQGDHQRIQLFEYSDRIGGRLFSINLPGLPNVVAEVGGMRWMPATKDNTGGHVMVDKLVGELKLESKNFPMGSNLPDKDPVGAKDNLFYLRGERFRLRDFTEAPDKIPYKLAWSERGYGPEDLQVKVMHNIYPGFDKLSLAEQMQVKVFGKEIWRYGFWDLLYRVLSNEGYQFMKDAGGYEANVANASAVTQLPATEYSDKTIFLTLKKGFQALPLTLAQRFAEVPGGLIAGEQRIRMNRRLASVQFSDDTEYPYRLHFQATRTVDGKTSDVPGAEEIVHARQVILALPRRSLELIQSPLFDDPWLKENIDSVLVQSAFKLFLAYEQPWWRSQGLVAGRSVTDLPIRQCYYMGTECEQDGGEKTLNSLLMASYNDIGTVPFWKGLEDGAPFEGYQPKSLQGRIDANEVVPKMQYQISEEMVRIAQRQVTSLHDQIELPAPYSAVYHAWDADPFGGGWHEWKANYRLDLIIQRMRHPVQEQEVYIVGEAYSYGQGWVEGALTTAESTLQDFFGLPRPAWLPEAYQLLPAPAPVDIDNPPALACTDCKKTLTEVTEFAYTGIKA
notes: full length, recombinant in E. coli BL21(DE3) from pET-15b; homooctamer (D4), one FAD per monomer; 4632 residues modelled in octamer (579 per chain)
Regarding B1, in series [5], the Km was found to be 480 µM, the kcat turned out to be 6.2 s⁻¹ and the kcat/Km worked out at 13000 M⁻¹ s⁻¹. Moreover, in series [6], the Km was 20000 µM, the kcat is 2.7 s⁻¹ and the kcat/Km was found to be 140 M⁻¹ s⁻¹.

In general, stoichiometry N refers to a count of units in the complex or per binding partner. Broadly, the Km is the concentration of substrate that gives half-maximal velocity. In general, kcat refers to the maximal rate divided by the concentration of active sites. By kcat/Km is commonly meant the second-order rate constant that governs catalysis at low substrate concentration.

(Values after PMC11694665, “Open and closed structures of L-arginine oxidase by cryo-electron microscopy and X-ray crystallography” (Journal of Biochemistry, 2024).)
